From patent US20210308031

Experiments:
[1] = target: (Pro-Pro-Gly)10 peptide model substrate
[2] = target: Unhydroxylated collagen purified from strain PP434 (vector MMV411)

B1: P4HA and P4HB with the His tag, expressed separately (bidirectional), encoded by plasmid MMV503 (protein)
chain 1: HPGFFTSIGQMTDLIHTEKDLVTSLKDYIKAEEDKLEQIKKWAEKLDRLTSTATKDPEGFVGHPVNAFKLMKRLNTEWSELENLVLKDMSDGFISNLTIQRQYFPNDEDQVGAAKALLRLQDTYNLDTDTISKGDLPGVKHKSFLTVEDCFELGKVAYTEADYYHTELWMEQALRQLDEGEVSTVDKVSVLDYLSYAVYQQGDLDKALLLTKKLLELDPEHQRANGNLKYFEYIMAKEKDANKSSSDDQSDQKTTLKKKGAAVDYLPERQKYEMLCRGEGIKMTPRRQKKLFCRYHDGNRNPKFILAPAKQEDEWDKPRIIRFHDIISDAEIEVVKDLAKPRLRRATISNPITGDLETVHYRISKSAWLSGYENPVVSRINMRIQDLTGLDVSTAEELQVANYGVGGQYEPHFDFARKDEPDAFKELGTGNRIATWLFYMSDVLAGGATVFPEVGASVWPKKGTAVFWYNLFASGEGDYSTRHAACPVLVGNKWVSNKWLHERGQEFRRPCTLSELE
chain 2: APDEEDHVLVLHKGNFDEALAAHKYLLVEFYAPWCGHCKALAPEYAKAAGKLKAEGSEIRLAKVDATEESDLAQQYGVRGYPTIKFFKNGDTASPKEYTAGREADDIVNWLKKRTGPAASTLSDGAAAEALVESSEVAVIGFFKDMESDSAKQFFLAAEVIDDIPFGITSNSDVFSKYQLDKDGVVLFKKFDEGRNNFEGEVTKEKLLDFIKHNQLPLVIEFTEQTAPKIFGGEIKTHILLFLPKSVSDYEGKLSNFKKAAESFKGKILFIFIDSDHTDNQRILEFFGLKKEECPAVRLITLEEEMTKYKPESDELTAEKITEFCHRFLEGKIKPHLMSQELPDDWDKQPVKVLVGKNFEEVAFDEKKNVFVEFYAPWCGHCKQLAPIWDKLGETYKDHENIVIAKMDSTANEVEAVKVHSFPTLKFFPASADRTVIDYNGERTLDGFKKFLESGGQDGAGDDDDLEDLEEAEEPDLEEDDDQKAVKDELHHHHHH
alpha-ketoglutaric acid consumption over time [1]: The P4HA and P4HB enzymatic activity from PP548 were confirmed by the same assay as above | % Hydroxyproline (in vitro hydroxylation, 32 C, 1 hour); enzyme from strain PP636 [2]: 0.9%
